Molecular target: GHSR1a-RLuc (ghrelin GHSR1a receptor fused to Renilla luciferase) (human) (UniProt Q92847)
Details: scale: % decrease of forskolin-induced cAMP levels

Sequence of UniProt Q92847 (Q92847 whole entry, the tested form may be a part): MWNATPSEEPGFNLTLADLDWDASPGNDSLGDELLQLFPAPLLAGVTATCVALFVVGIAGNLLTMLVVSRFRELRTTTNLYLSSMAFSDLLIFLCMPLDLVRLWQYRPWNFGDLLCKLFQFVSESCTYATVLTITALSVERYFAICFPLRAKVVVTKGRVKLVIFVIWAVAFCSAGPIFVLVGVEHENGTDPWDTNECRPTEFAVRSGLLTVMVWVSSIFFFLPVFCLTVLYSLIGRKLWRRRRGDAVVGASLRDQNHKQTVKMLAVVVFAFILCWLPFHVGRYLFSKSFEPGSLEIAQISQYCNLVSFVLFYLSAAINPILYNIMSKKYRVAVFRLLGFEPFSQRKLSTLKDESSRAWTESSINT

- forskolin-induced cAMP levels in HEK-293T cells expressing GHSR1a alone, 200 nM ghrelin: 25
Substance: Ghrelin (peptide)
